Laboratory results as given in patent US20260241035A1, “FUNCTIONAL NUCLEIC ACID MOLECULE AND METHOD” (THE UNIVERSITY COURT OF THE UNIVERSITY OF EDINBURGH, priority 2022, published 2026).

B1: CSE074: clustered SOX dimer motif enhancer, SEQ ID NO: 51 (nucleic acid)
DNA: ATACATTTTAGCACCAAACACAATTTAATAACAGGGCACAGAGGCCGCAAAGCCTCCTGATTCTGTTCCATTACTAATTTATCAGGGGCTGAAAGCAACCAAACTTAGGATCCCAGGCAGACAATGGAGCCTTTGAGGGGCAAGGGAAGCATCATTTAAAAGGAAAGCATTACCATTCTAAAATAATGGCAAAGCACATGAACTGAGTGCTCTGAAAGAGAGCACTACAAAAAAGGTATTCTCAGCTTAAATGCCCCAAACACAAAAGCTTTTAGTTGGGACTTAGACGGGAAAAAGAAAATAGCTCCCAATAAATTGGTTTTACCAGTATCCTTTTGTGTGTGCTGGTGCCAAGGGGGCGAGGGTACAGGCAAAGCGTGATTTTCCAAAACCTAGCTGAATTATGTTTCTTCTTTAGAACAAAACCCAACATTTTGCTAATGAGGATAAAGACAGTAAAACTGATATTCCTGTGCTATTACTAACTTGG
B2: ID0876: enhancer fragment, SEQ ID NO: 8 (nucleic acid)
DNA: GAGCAGGCAGTCATTTGGTTCCCTTCTCTGAATGCATTGGCTCTGATCCACGGCGCCTCAGGAAGTGAAAGGGAGCAGGCAGTGAGGCCAAGCCATGAATGTTGGGCCCTTTTCTTAGAAAACAAAGGGTTCACTTTAGGCTAGGAGGAAACATCCGGGG
B3: ID2339: enhancer fragment, SEQ ID NO: 9 (nucleic acid)
DNA: GTCGGCGGAACTGAGTCTCCTTTGTGGAGCCCCTCATTTGCATGATAAACCCCGGGGACAAAGTGTGTTCTTGTTACTTGGACTGTTTCTTGGAAACTGCTGCTACCTGGAGCGAGTGAACACAGGGCAAGTATTCTCGCCCACAGCAACGTGTCATTGA
B4: CSE061: clustered SOX dimer motif enhancer, SEQ ID NO: 48 (nucleic acid)
DNA: GAACAGCACTTAAATATTAATAGCATCACTGGGAAAACACGACAGCTATTTCCCTGTTTTCTGCAGCTCAATGAAGAGTTGTTCAGTGCAGACCCCAGTGCTCTTGCCTCATGAATGGACGTGATTGTGGGGACATCATCTCCTACTAAGGCAAAACGTGACACTGAGAACAAAGGCTGGTTTTTAGCCTGATGTGATGAGCTCACCCCAGTGCCCATGTGGGGACTTTGAAGCTCGTCCAGGTGCCAGTTTTCTGTGTATATGACATTCTTGGTTGGGGAGGGTGTGGACTGGGCAGCAGGCTTT
B5: CSE014: clustered SOX dimer motif enhancer, SEQ ID NO: 47 (nucleic acid)
DNA: GCCTTTTAGCTGATTAACAAATACAGTGAATTTAACTTTGTAGATTCTTAACATTTAAAGACAACAGTCTAAGGCAATTTAAAGTATATTCTGCCAATCAGTTGTTGAGTTAGACCACCCATAGCCTTTTTTTATTCTTCATTGTTTGAATAATATGGGAGGAAATTTAGTGTATACTCTCTTCTTCCTGTATTTTCCAGTTAGATTAAGCTGTTGTCTTCACAATTGCCTCCCAGCTGCTGTGACTTGTGAAAACAACAGACCCTGCTCTGTTGTCTGGAGAAAGCCGGGATTGTTATGAGTAACTTTATTGCAGGCACATGAGTGTGTTAAGACTTTAAAACACGCTCAAATGTCATGTGCACACCCAATGACGGGCAAGAATAATTATGAAAAAACAAGAAATCTATGTCTATGAAACCGTGTTGGACAAAATGGGCCATTCATTGTGTTCCCCTGGGAATGCCTGGACTCTGCAGTCAGAAAACAAAAAAGGCACTTTTTTCCTGCCGTAGGCTGAATGCTTAGCTTTGCCATCTGAGCCCTAAGAAAACATGGGCCCCTCTACTGCTGGCGCACCCACGCACACTAAAAAATATTAATGCCTCTCTCTCCTTACTTTTTTCCAGGCATTCCCTCGTGTAGGCTGTAGCCAATATAATGTCAACACAAA
B6: CSE054: clustered SOX dimer motif enhancer, SEQ ID NO: 50 (nucleic acid)
DNA: GCCAACAACTCATATAGTGGAGGCTTGAGCACACCATGCTTATTCCCAGAGTTCCAATGCTCTGCTTTTGAACCATTACCATGCCTTTCAGCAGCACTGTCAACAGAGCTCAGAGAAGGTCTTGAACTCCAGAGAATGAATGAGATATGCCAAATGAAGCATAATTACTTTATTGACGTCATTCAGCTTTCAACTCACATTTAATGAGAAAGCTTCTACTGCTTGAAACAGTGGGCCATTTGTAGCACATTATGCAAATGATAAGACTAATCTTTTGCATTATACATAAGAGCTGCTTATTGTGCATTAACTAATTTATCTGACTAGGAAGGGGCTATGAATGCTGATTTTTATTAAGCTCTTCATTAAGTGAAAATGTAGGCATGGCAAGTGCATAT
B7: CSE075: clustered SOX dimer motif enhancer, SEQ ID NO: 49 (nucleic acid)
DNA: ATAAGCCCTTTAAATTAAATCTTTATGCAGATTCTATTTTATACTCCAAACTTTTCATGGAGCCTTGTGTAATTCTGATGTGTAAACCAACAAACAGAGAGGCTCTGTGTATGGAGTAGCTGGTTTGGATACCAGCTGGCTTGGCTGTGCGCCTTTCTAATGGTAATGAAGTCACACAGCTGCTAGGACAATCAGCTGGAGTTCAGATTGTCACTAGCTAAATGGATATCCATTGACTAGCTTCTTATCCGGACTCATTAAAGTTTAGTATTGACAAATAGTGGCTGGAGGTTTACAACTAAGAGGCATGTAGAAATGAACTTGTTGACTATTTTTTCCCTATAGCTTTTGCTTTGTGATTCACAGAATGTCATTCATC
B8: CSE031: clustered SOX dimer motif enhancer, SEQ ID NO: 52 (nucleic acid)
DNA: CAGAGGAGAGAGGAGGTCATTTGGGACCATTTACTCATGCGAGAGTCACTGCCCCATGCTAAGATTTCCCCTAAAAATAAAATGATAAGATAATAACTCATAATGCTCTCCCCAAATCAGTACCACACAGACCCCCCTCTTCTGTTTGCTCAGACCCCCGCTCTCCAGCACAAAGTCTTTATTGGTCTCCCTGCAGGGGTGAAAATAAAGGGGGTTTTGTTCTTCTCCTCCCCCTCCCCCCTCGAAGGGCTGAGTGAGTTTATCTGACACTGCAGCAGTCTTTGTAAACTGAGTGTCCCAGGATAAACGCTCCCTTAAGAGTCGCTTGGCCTGGGACAGAGGGACCCTCTCCAGAGGAGAATGGGGAGCTTGTTCCAATGGTCTTTTAATATGGGGGGCGGGGTGTCACCAAGGACAGGCCTCCAGCACACTCTCACAGAAGGGTCTCTGTCCTGAGGCTACAGTGGAGGGAATTCTTAAAGACACAGATGCTGAAAAGGGGGAAGGAATTTTTTTTTCCCCTAAGGGGAGGGGAGGGAGGTTAGGGCGGGAAGGAGAAGGGGGAGTGGCGAGGACTCCTCATTCCCCAGAACAATTCCAGTTACAACAAGGCGTCTCTAT

test system: GSC7 cells; experiment: Nano-Glo Dual-Luciferase Reporter (Nanoglo DLR) assay of enhancer activity, fold change to mCMV; assay type: cell-based, human; conditions: expression fold change of the individual enhancer compared to mCMV
In short: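 160 bp enhancer fragments in NanoLuc reporter plasmids were co-transfected 1:10 with PGK-firefly luciferase into GSC7 cells using Lipofectamine LTX/Plus and read two days later. NanoLuc signal was normalised to firefly, then expressed as fold change to the empty mCMV vector.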

Going from B1 to B2, the “Fold change (Median)” value falls from 250.6 fold to 91.1 fold.

First: B3
Second: B4
The “Fold change (Median)” value of the first is higher: 79.6 fold for the first, 58.3 fold for the second.

Compared with B5, B6 is higher in “Fold change (Median)” value: 27.7 fold for the first, 65.7 fold for the second.

Going from B7 to B8, the “Fold change (Median)” value rises from 58.1 fold to 249.3 fold.
